Assays:
[1] = system: PEX5–GFP influx into YG hydrogel; assay: Influx of PEX5–GFP into YG hydrogel in the presence of PEX39 (Fig. 6h); type: biochemical, Xenopus laevis
Protocol: Fig. 6 PEX39 can extract PEX7 from the YG phase. a, YG hydrogels were prepared in a glass-bottomed dish and pre-equilibrated with PEX7–GFP. PEX39 was then added to the buffer and a point-scanning confocal microscope was used to follow the PEX7–GFP fluorescence over time. b, PEX7–GFP signal in the gel over time at the indicated molar ratios of wild-type PEX39 (relative to PEX7). […] The effect of PEX39 on the influx of PEX7–GFP into the gel was then assessed using a point-scanning confocal microscope. g, PEX7–GFP influx in the presence of the indicated molar ratios of wild-type PEX39 (relative to PEX7) with or without a fourfold excess of PTS2 peptide and either PEX5S or PEX5-21. […]
A solution of the purified wild-type YG-domain polypeptide (or the variant lacking the KPWE motif) was concentrated to 2 mM in 50 mM HEPES·NaOH pH 7.8 at RT, 2 M urea and 2 mM TCEP. […] Fluorescence was excited through a 405/488/561/647 quad-band dichroic (Chroma), using a 488-nm solid-state laser (Coherent) and a galvano scanner. […]

[2] = system: PEX7–receptor–cargo complex on PEX39-coated beads; assay: Bead-binding assay: recruitment of PEX7–receptor–cargo complex to PEX39-coated beads (Fig. 7d, 8a); parameters: species or system yeast (S. cerevisiae); settings: no peptide, Fig. 7d
From the text: Cysteine-containing peptides were covalently conjugated to thiol-reactive SulfoLink coupling resin (Thermo Fisher, catalogue number 20401) according to the manufacturer’s instructions. The prepared beads were then mixed with Assay Buffer containing the fluorescently labelled protein as well as additional components indicated in the text, and the resulting bead suspensions were transferred to a 384-well glass-bottomed plate (Cellvis, P384-1.5H-N). GST-fusion proteins were instead mixed with glutathione agarose 4B (Prometheus, 20-543) in Assay Buffer containing the fluorescently labelled protein and additional components indicated in the text; the resulting bead suspensions were then transferred to a glass-bottomed plate as above. The plates were incubated at RT for the durations specified in the text and directly imaged on the spinning-disk confocal platform described earlier for peroxisomal import reactions in Xenopus egg extract. Note that imaging the beads directly in the binding reaction preserves the equilibrium and thereby allows even weak interactions to be detected. Fluorescence was collected through a Nikon ×10 0.45 NA Plan Apo air objective, and images were acquired using the Nikon NIS-Elements software and a 16-bit digitizer without binning. Imaging parameters were configured to maximize the SNR while avoiding saturation. Samples intended to be compared were imaged using identical acquisition settings.

PEX7–GFP in YG hydrogel = assay: YG hydrogel release assay, PEX7–GFP (Fig. 6a-c,e); type: biochemical, yeast
Protocol: (§1) YG hydrogels were prepared in a glass-bottomed plate as described earlier and equilibrated for 3 h at RT in Assay Buffer containing 0.5 µM PEX7–GFP or PEX5–GFP with or without PTS2 peptide and receptor at the concentrations specified in the text. Following the initial incubation, the hydrogels were imaged on a Nikon A1R point-scanning confocal system, as described earlier, with a Nikon ×10 0.45 NA Plan Apo air objective, a pinhole dilated to 1.4 Airy units and a pixel size of 2 µm. A solution of purified PEX39 was then spiked into each reaction and the hydrogels imaged every 2 min for an additional 1 h at RT.
(§2) For the PEX7-release assay from YG hydrogels, the total fluorescence within a 30-µm-wide band in the gel extending for 150 µm from the gel edge into the gel was measured at each time point. This distance was sufficient to fully encompass the permeation front of each fluorescent species. The resulting values were then normalized to the total fluorescence inside the gel at the start of the experiment and plotted as a function of time.

PEX5–GFP in YG hydrogel = assay: YG hydrogel release assay, PEX5–GFP (Fig. 6d); type: biochemical; settings: fourfold excess of PEX39
Protocol: as §1, §2

B1: PEX39 (WT): PEX39 from S. cerevisiae (GenBank accession no. NP_012546.4) (protein)
chain: MAAGGELSYEELLDHILNNKPIPNIVEVPNVTLDEGLASTPSLRPRPRPWEGQLQHQSHQGSLDKPNISLDIDQESLEGMTSLTRLSECYDIQSKLQINDSDNDNDDNNNDNNKGDGNDDDNNTVTANPTAR
modifications: left off: GST, N-terminal, cleaved
B1 was tested, and the “Effect on influx of PEX5–GFP into YG hydrogel” value [1] was “did not prevent the influx of PEX5–GFP”, the “Recruitment of PEX7–PEX5-21–PTS2–GFP complex to PEX39-coated beads” value [2] was “could be recruited to beads coated with wild-type PEX39” and the “Extraction of PEX7–GFP from YG hydrogel” value (PEX7–GFP in YG hydrogel; PEX39 or mutants added to preloaded hydrogel) was “rapidly depleted PEX7–GFP from the hydrogel in a dose-dependent manner”. For the same molecule, the “Extraction of PEX7–GFP from YG hydrogel, PEX5-21 complex” value (PEX7–GFP in YG hydrogel; with PTS2 peptide and PEX5-21) was “unable to efficiently extract PEX7–GFP”, the “Extraction of PEX7–GFP from YG hydrogel, PEX5S” value (PEX7–GFP in YG hydrogel; with PTS2 peptide and PEX5S) was “readily extracted” and the “Extraction of PEX5–GFP from YG hydrogel” value (PEX5–GFP in YG hydrogel) was “unable to extract PEX5–GFP from the hydrogel”.
